{"source": "the supplement of paper PMC10567573", "experiment": "protein stability index of a GFP-peptide fusion (GPS, HEK-293T) (PSI 1-6); higher = more stable", "key": {"[1]": {"details": "treatment: DMSO, c terminus: a fixed tail appended"}, "[2]": {"details": "treatment: MLN4924 1 uM, 8 h, c terminus: a fixed tail appended"}}, "note": "± gives the standard deviation.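 Further: 24-mer peptide tiles fused after GFP, lentivirally expressed, FACS-sorted into six equal bins by GFP/DsRed ratio, decoded by Illumina sequencing, PSI is the read-weighted mean bin number.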", "data": [{"sequence": "GGAVVANYPYDKSFEHRVRGVRRT [CPN1]", "values": [{"measurement": "protein stability index", "setting": "[1]", "value": "4.25 ± 0.29"}, {"measurement": "protein stability index", "setting": "[2]", "value": "4.29 ± 0.15"}]}, {"sequence": "ALSYAQHTRQLISCGGDGGIVVWN [WDFY2]", "values": [{"measurement": "protein stability index", "setting": "[1]", "value": "2.16 ± 0.47"}, {"measurement": "protein stability index", "setting": "[2]", "value": "2.12 ± 0.23"}]}, {"sequence": "QYNRPISDFLTLHSIIISLVEAGA [FEM1B]", "values": [{"measurement": "protein stability index", "setting": "[1]", "value": "2.34 ± 0.53"}, {"measurement": "protein stability index", "setting": "[2]", "value": "2.36 ± 0.34"}]}, {"sequence": "SAALFYLTNSEYRSEQSVKLRRQV [ZER1]", "values": [{"measurement": "protein stability index", "setting": "[1]", "value": "2.85 ± 0.57"}, {"measurement": "protein stability index", "setting": "[2]", "value": "2.83 ± 0.069"}]}, {"sequence": "KNLYKLASQCCGVHVISLHIWELS [PTGFR]", "values": [{"measurement": "protein stability index", "setting": "[1]", "value": "2.97 ± 0.15"}, {"measurement": "protein stability index", "setting": "[2]", "value": "3.06 ± 0.48"}]}, {"sequence": "DVDEDEPGGLVGSADVVSPSGHSD [PPFIA4]", "values": [{"measurement": "protein stability index", "setting": "[1]", "value": "5.66 ± 0.36"}, {"measurement": "protein stability index", "setting": "[2]", "value": "5.47 ± 0.12"}]}, {"sequence": "LGHPALSQEEGKSALEDQGSNPSS [PPFIA4]", "values": [{"measurement": "protein stability index", "setting": "[1]", "value": "5.59 ± 0.21"}, {"measurement": "protein stability index", "setting": "[2]", "value": "5.25 ± 0.91"}]}, {"sequence": "DNDPRDLIGDFSKGYLFHTVAGKH [CDC25A]", "values": [{"measurement": "protein stability index", "setting": "[1]", "value": "3.2 ± 0.13"}, {"measurement": "protein stability index", "setting": "[2]", "value": "3.41 ± 0.19"}]}, {"sequence": "KTEDENKQSFLDGGKGHHLPSENL [TOR1AIP2]", "values": [{"measurement": "protein stability index", "setting": "[1]", "value": "5.4 ± 0.21"}, {"measurement": "protein stability index", "setting": "[2]", "value": "5.27 ± 0.22"}]}, {"sequence": "VPTPLTNVQILLPVGEPVTNVRLQ [FCHO1]", "values": [{"measurement": "protein stability index", "setting": "[1]", "value": "3.35 ± 0.34"}, {"measurement": "protein stability index", "setting": "[2]", "value": "3.36 ± 0.33"}]}, {"sequence": "NFGFDLLVTYTNRYIIFKRNTLNQ [GMCL1]", "values": [{"measurement": "protein stability index", "setting": "[1]", "value": "2.1 ± 0.15"}, {"measurement": "protein stability index", "setting": "[2]", "value": "2.47 ± 0.56"}]}, {"sequence": "GISNALHRLKLRLAIQEMVSLTSP [PPFIA4]", "values": [{"measurement": "protein stability index", "setting": "[1]", "value": "2.46 ± 0.22"}, {"measurement": "protein stability index", "setting": "[2]", "value": "2.18 ± 0.13"}]}, {"sequence": "YQYIQSRFYRSPEVLLGTPYDLAI [DYRK1B]", "values": [{"measurement": "protein stability index", "setting": "[1]", "value": "2.18 ± 0.41"}, {"measurement": "protein stability index", "setting": "[2]", "value": "2.29 ± 0.35"}]}, {"sequence": "KLRHLDISRDRLSSYYKFKLTREV [ZER1]", "values": [{"measurement": "protein stability index", "setting": "[1]", "value": "2.35 ± 0.13"}, {"measurement": "protein stability index", "setting": "[2]", "value": "2.39 ± 0.31"}]}, {"sequence": "SPNSTPAKTIDTSPPVDLFATASA [SNAP91]", "values": [{"measurement": "protein stability index", "setting": "[1]", "value": "4.8 ± 0.18"}, {"measurement": "protein stability index", "setting": "[2]", "value": "4.67 ± 0.15"}]}, {"sequence": "FISVFSNLLESKADGIEVSYNACG [ZER1]", "values": [{"measurement": "protein stability index", "setting": "[1]", "value": "2.3 ± 0.49"}, {"measurement": "protein stability index", "setting": "[2]", "value": "2.17 ± 0.17"}]}, {"sequence": "QFSRGDFVVEYHGDLIEITDAKKR [KMT5A]", "values": [{"measurement": "protein stability index", "setting": "[1]", "value": "4.13 ± 0.93"}, {"measurement": "protein stability index", "setting": "[2]", "value": "4.15 ± 0.059"}]}, {"sequence": "DSTMRILSNLVQHILKKYYGNGMR [RTP4]", "values": [{"measurement": "protein stability index", "setting": "[1]", "value": "2.45 ± 0.73"}, {"measurement": "protein stability index", "setting": "[2]", "value": "2.46 ± 0.41"}]}, {"sequence": "TRKHAHHCHKRRTRSCSSASSRSQ [CLK3]", "values": [{"measurement": "protein stability index", "setting": "[1]", "value": "4.65 ± 0.2"}, {"measurement": "protein stability index", "setting": "[2]", "value": "4.82 ± 0.19"}]}, {"sequence": "QHIDNITQIEDATEKLKANAESSK [TRIM14]", "values": [{"measurement": "protein stability index", "setting": "[1]", "value": "5.46 ± 0.065"}, {"measurement": "protein stability index", "setting": "[2]", "value": "5.33 ± 0.39"}]}, {"sequence": "GDWSAFNQAPSGPVASSGEFFGSA [CLINT1]", "values": [{"measurement": "protein stability index", "setting": "[1]", "value": "4.16 ± 0.26"}, {"measurement": "protein stability index", "setting": "[2]", "value": "4.31 ± 0.18"}]}, {"sequence": "FPVSVTQQSPAAVSMETYHVTLTL [C2CD2L]", "values": [{"measurement": "protein stability index", "setting": "[1]", "value": "3.29 ± 0.38"}, {"measurement": "protein stability index", "setting": "[2]", "value": "2.9 ± 0.36"}]}, {"sequence": "VQLIWVVSQLYPESIVPIPSSNEE [INTS4]", "values": [{"measurement": "protein stability index", "setting": "[1]", "value": "3.07 ± 0.45"}, {"measurement": "protein stability index", "setting": "[2]", "value": "2.81 ± 1.1"}]}, {"sequence": "TEGFTSGRHYWEVEVGDKTHWAVG [TRIM39]", "values": [{"measurement": "protein stability index", "setting": "[1]", "value": "2.85 ± 0.44"}, {"measurement": "protein stability index", "setting": "[2]", "value": "2.93 ± 1.1"}]}, {"sequence": "EAGGRFVAFSGEGQSLRKKGRKP [UFD1]", "values": [{"measurement": "protein stability index", "setting": "treatment: DMSO, c terminus: native", "value": "2.75 ± 0.78"}, {"measurement": "protein stability index", "setting": "treatment: MLN4924 1 uM, 8 h, c terminus: native", "value": "3.29 ± 0.79"}]}, {"sequence": "QLQRSWVKMDQKSKHLKEMYQELM [TRIM43]", "values": [{"measurement": "protein stability index", "setting": "[1]", "value": "2.36 ± 0.4"}, {"measurement": "protein stability index", "setting": "[2]", "value": "2.55 ± 0.75"}]}, {"sequence": "PDHFDTAILFTRQDLCGVSTCDTL [ADAMTS4]", "values": [{"measurement": "protein stability index", "setting": "[1]", "value": "2.83 ± 0.21"}, {"measurement": "protein stability index", "setting": "[2]", "value": "2.94 ± 0.4"}]}, {"sequence": "LRVRELQRKVDGIQKAYDELRLQS [CCDC89]", "values": [{"measurement": "protein stability index", "setting": "[1]", "value": "3.16 ± 0.13"}, {"measurement": "protein stability index", "setting": "[2]", "value": "3.42 ± 0.39"}]}, {"sequence": "QDQGYKTLRLRENCVLSSSPNPFP [ZNF8]", "values": [{"measurement": "protein stability index", "setting": "[1]", "value": "3.25 ± 0.11"}, {"measurement": "protein stability index", "setting": "[2]", "value": "3.43 ± 0.22"}]}, {"sequence": "KCKAEHDQLLLNYAKKESDLNGAQ [LMNB1]", "values": [{"measurement": "protein stability index", "setting": "[1]", "value": "4.03 ± 0.38"}, {"measurement": "protein stability index", "setting": "[2]", "value": "4.01 ± 0.32"}]}, {"sequence": "SNISRPRDNPMCLKCDLQERLLCP [M1AP]", "values": [{"measurement": "protein stability index", "setting": "[1]", "value": "2.87 ± 0.095"}, {"measurement": "protein stability index", "setting": "[2]", "value": "3.05 ± 0.26"}]}, {"sequence": "QFHCHKAVLASCSQYFRSLFSSHP [KLHL14]", "values": [{"measurement": "protein stability index", "setting": "[1]", "value": "2.95 ± 0.43"}, {"measurement": "protein stability index", "setting": "[2]", "value": "2.81 ± 0.4"}]}, {"sequence": "VVYSCVEGKMYTARKGKGAFCNGQ [IMPA1]", "values": [{"measurement": "protein stability index", "setting": "[1]", "value": "2.33 ± 0.27"}, {"measurement": "protein stability index", "setting": "[2]", "value": "2.36 ± 0.13"}]}, {"sequence": "DYQPTQAGRLMRPSVKYLSHPRVQ [RNF180]", "values": [{"measurement": "protein stability index", "setting": "[1]", "value": "3.34 ± 0.22"}, {"measurement": "protein stability index", "setting": "[2]", "value": "3.4 ± 0.12"}]}, {"sequence": "MFPVAPKPQDSSQPSDRLMTEKQQ [CEP70]", "values": [{"measurement": "protein stability index", "setting": "[1]", "value": "5.28 ± 0.2"}, {"measurement": "protein stability index", "setting": "[2]", "value": "5.24 ± 0.11"}]}, {"sequence": "KERAAGGGAGSSEDDAQSRRDEQD [GOLPH3]", "values": [{"measurement": "protein stability index", "setting": "[1]", "value": "5.65 ± 0.35"}, {"measurement": "protein stability index", "setting": "[2]", "value": "5.67 ± 0.15"}]}]}
